Key:
[1] = target: T1, Angiopoietin 2 (UniProt O15123); assay: competition, blocking Tie-2
T1 chain: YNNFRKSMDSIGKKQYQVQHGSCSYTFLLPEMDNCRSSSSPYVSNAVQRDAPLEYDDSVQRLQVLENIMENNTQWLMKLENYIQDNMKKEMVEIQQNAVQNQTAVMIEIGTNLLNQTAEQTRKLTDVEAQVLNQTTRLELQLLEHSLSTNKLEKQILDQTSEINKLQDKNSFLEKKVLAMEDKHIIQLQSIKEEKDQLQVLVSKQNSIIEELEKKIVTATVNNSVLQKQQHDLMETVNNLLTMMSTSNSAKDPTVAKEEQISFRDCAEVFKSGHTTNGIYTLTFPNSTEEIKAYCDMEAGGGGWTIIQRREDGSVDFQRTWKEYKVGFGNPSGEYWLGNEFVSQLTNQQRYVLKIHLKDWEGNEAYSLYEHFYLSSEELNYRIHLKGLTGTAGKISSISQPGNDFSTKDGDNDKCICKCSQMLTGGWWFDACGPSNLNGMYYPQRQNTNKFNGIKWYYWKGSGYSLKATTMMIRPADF

[2] = target: T2, Angiopoietin 1 (UniProt Q15389); assay: competition, blocking Tie-2
T2 chain: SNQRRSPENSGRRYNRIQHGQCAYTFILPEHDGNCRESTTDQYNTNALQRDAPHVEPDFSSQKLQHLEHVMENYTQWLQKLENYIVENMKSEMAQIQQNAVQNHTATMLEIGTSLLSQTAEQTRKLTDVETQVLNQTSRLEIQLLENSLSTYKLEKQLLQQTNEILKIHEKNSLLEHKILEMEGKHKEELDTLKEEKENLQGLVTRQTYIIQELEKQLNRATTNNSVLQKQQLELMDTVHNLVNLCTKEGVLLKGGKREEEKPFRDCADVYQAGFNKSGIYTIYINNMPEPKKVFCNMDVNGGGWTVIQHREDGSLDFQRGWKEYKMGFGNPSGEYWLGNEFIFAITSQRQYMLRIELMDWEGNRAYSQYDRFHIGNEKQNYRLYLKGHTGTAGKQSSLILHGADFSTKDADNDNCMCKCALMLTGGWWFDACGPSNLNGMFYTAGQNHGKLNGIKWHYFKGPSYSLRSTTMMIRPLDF

B1: HC22/LC22 (antibody, V domains shown)
VH: EVQLVQSGAEVKKPGASVKVSCKASGGTFSSYAISWVRQAPGQGLEWMGGIIPIFGTANYAQKFQGRVTITADESTSTAYMELSSLRSEDTAVYYCARGGSGRFDYWGQGTLVTVSS
VL: QSALTQPASVSGSPGESIIISCTGTSSDVGAYNYVSWYQQHLGKAPKLMIYDVSQRPSGVSDRFSGSKSGNTASLTISGLQAEDEADYYCSSFTGDSVIFGGGTKLTVL
IC50 [1]: 0.03 nM | IC50 [2]: 0.24 nM

B2: HC14/LC14 (antibody, V domains shown)
VH: EVQLLESGGGLVQPGGSLGLSCAASGFTLSNYDMSWVRQAPGKGLEWVSWISPDSSSTYYADSVKGRFTISRDNSKNTLYLQMNSLRAEDTAVYYCARSVMPFDYWGQGTLVTVSS
VL: QSVLTQPPSASGTPGQRVTISCSGSSSNIGSNAVYWYQQLPGTAPKLLIYDDSKRPSGVPDRFSGSKSGTSASLAIGGLRSEDEADYYCGAWDDSLSAYVFGGGTKLTVL
IC50 [1]: 0.08 nM | IC50 [2]: 0.74 nM

B3: HC16/LC16 (antibody, V domains shown)
VH: EVQLLESGGGLVQPGGSLRLSCAASGFTFSDYYMSWVRQAPGKGLEWVSSISYDDGSRKYYADSGKRSVTISRDNSKNTLYLQMNSLRAEDTAVYYCARDRSTLRLDSFDYWGQGTLVTVSS
VL: QSVLTQPPSASGTPGRRVTISCSGSSPNIGNNTVNWYQQLPGTAPKLLIYSDSHRPSGVPDRFSGSKSGTSASLAISGLRSEDEADYYCGAWDYSLNAYVFGGGTKLTVL
IC50 [1]: 0.32 nM | IC50 [2]: 0.26 nM

B4: HC2/LC2 (antibody, V domains shown)
VH: EVQLLESGGGLVQPGGSLRLSCAASGFTFSNYAMSWVRQAPGKGLEWVSVISPGSGNTYYADSVKGRFTISRDNSKNTLYLQMNSLRAEDTAVYYCAKGALKCRHRSCSSYNAMDVWGQGTLVTVSS
VL: QSVLTQPPSASGTPGQRVTISCTGSSSNIGNNDVSWYQQLPGTAPKLLIYDNNHRPSGVPDRFSGSKSGTSASLAISGLRSEDEADYYCGTWDASLNGYVFGGGTKLTVL
IC50 [1]: 0.06 nM | IC50 [2]: 0.23 nM

B5: HC12/LC12 (antibody, V domains shown)
VH: EVQLLESGGGLVQPGGSLRLSCAASGFTFSNYAMSWVRQAPGKGLEWVSVISPGSGNTYYADSVKGRFTISRDNSKNTLYLQMNSLRAEDTAVYYCAKGALKCRHRSCSSYNAMDVWGQGTLVTVSS
VL: QSVLTQPPSASGTPGQRVTISCTGSSSNIGNNDVSWYQQLPGTAPKLLIYDNNHRPSGVPDRFSGSKSGTSASLAISGLRSEDEADYYCGTWDASLNGYVFGGGTKLTVL
IC50 [1]: 0.04 nM | IC50 [2]: 0.38 nM

B6: HC8/LC8 (antibody, V domains shown)
VH: EVQLLESGGGLVQPGGSLRLSCAASGFTFSNYSMSWVRQAPGKGLEWVSAISPGNGNKYYADSVKGRFTISRDNSKNTLYLQMNSLRAEDTAVYYCAKGLSSLLLVGFDYWGQGTLVTVSS
VL: QSVLTQPPSASGTPGQRVTISCSGSSSNIGNNDVSWYQQLPGTAPKLLIYSDSQRPSGVPDRFSGSKSGTSASLAISGLRSEDEADYYCGSWDASLNGYVFGGGTKLTVL
IC50 [1]: 0.2 nM | IC50 [2]: 0.21 nM

B7: HC4/LC4 (antibody, V domains shown)
VH: EVQLLESGGGLVQPGGSLRLSCAASGFTFSNYAMSWVRQAPGKGLEWVSAISHGGSSKYYADSVKGRFTISRDNSKNTLYLQMNSLRAEDTAVYYCARDRTASLLDGFDYWGQGTLVTVSS
VL: QSVLTQPPSASGTPGQRVTISCSGSSSNIGNNYVNWYQQLPGTAPKLLIYADSNRPSGVPDRFSGSKSGTSASLAISGLRSEDEADYYCGTWDASLSGYVFGGGTKLTVL
IC50 [1]: 1.35 nM | IC50 [2]: 0.26 nM

B8: HC10/LC10 (antibody, V domains shown)
VH: EVQLVESGGGLVQPGGSLRLSCAASGFTFSNYAMSWVRQAPGKGLEWVSWIYPDNGNTYYADSVKGRFTISRDNSKNTLYLQMNSLRAEDTAVYYCAKYSLDKYTPWPYSYYGMDVWGQGTLVTVSS
VL: QSVLTQPPSASGTPGQRVTISCTGSSSNIGNNAVTWYQQLPGTAPKLLIYDDSHRPSGAPDRFSGSKSGTSASLAISGLRSEDEADYYCGTWDASLSAYVFGGGTKLTVL
IC50 [1]: 1.22 nM | IC50 [2]: 0.19 nM

B9: HC18/LC18 (antibody, V domains shown)
VH: EVQLLESGGGLVQPGGSLRLSCAASGFTFSDYDMSWVRQAPGKGLEWVSWISPDDGSIYYADSVKGRFTISRDNSKNTLYLQMNSLRAEDTAVYYCARSVLPFDYWGQGTLVTVSS
VL: QSVLTQPPSASGTPGQRVTISCSGSSSNIGSNAVYWYQQLPGTAPKLLIYDDSKRPSGVPDRFSGSKSGTSASLAISGFRSEDEADYYCGSWDASLNAYVFGGGTKLTVL
IC50 [1]: 2.85 nM | IC50 [2]: 0.24 nM

— patent US9512220 (dated 2016)
